Like-named read-outs stand apart in the source and are kept apart here.
Columns and labels:
Assay in all cases: direct ELISA on coated protein, IgG1
[1] = target: T1, hDR3-Fc (human, UniProt Q93038)
T1 construct: Fc fusion; member of the panel m9
T1 sequence (looked up): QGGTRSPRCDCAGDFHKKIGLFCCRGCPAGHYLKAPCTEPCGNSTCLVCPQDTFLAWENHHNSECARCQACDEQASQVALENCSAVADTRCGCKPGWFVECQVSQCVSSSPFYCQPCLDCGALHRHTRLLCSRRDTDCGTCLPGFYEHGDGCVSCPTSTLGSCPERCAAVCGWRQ

[2] = target: T2, hICAM-1-Fc (human, UniProt P05362)
T2 construct: Fc fusion; member of the panel m9
T2 sequence (P05362 28-480 limits assumed): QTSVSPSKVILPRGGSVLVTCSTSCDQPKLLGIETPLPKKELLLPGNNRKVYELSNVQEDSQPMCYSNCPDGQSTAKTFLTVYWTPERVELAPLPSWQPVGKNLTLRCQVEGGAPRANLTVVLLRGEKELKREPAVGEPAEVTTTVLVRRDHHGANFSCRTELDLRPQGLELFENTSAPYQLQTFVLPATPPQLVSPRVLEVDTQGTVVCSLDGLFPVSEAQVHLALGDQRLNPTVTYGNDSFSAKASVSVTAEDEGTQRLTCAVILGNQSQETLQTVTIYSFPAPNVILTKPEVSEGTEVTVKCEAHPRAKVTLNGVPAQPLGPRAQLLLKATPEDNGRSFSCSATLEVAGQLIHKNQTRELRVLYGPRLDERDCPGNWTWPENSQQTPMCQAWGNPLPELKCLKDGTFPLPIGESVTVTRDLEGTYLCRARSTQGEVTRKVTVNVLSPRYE

[3] = target: T3, hCD4 (human, UniProt P01730)
T3 construct: purified recombinant protein; member of the panel m9

[4] = target: T4, hVCAM-1 (human, UniProt P19320)
T4 construct: purified recombinant protein; member of the panel m9
T4 sequence (looked up): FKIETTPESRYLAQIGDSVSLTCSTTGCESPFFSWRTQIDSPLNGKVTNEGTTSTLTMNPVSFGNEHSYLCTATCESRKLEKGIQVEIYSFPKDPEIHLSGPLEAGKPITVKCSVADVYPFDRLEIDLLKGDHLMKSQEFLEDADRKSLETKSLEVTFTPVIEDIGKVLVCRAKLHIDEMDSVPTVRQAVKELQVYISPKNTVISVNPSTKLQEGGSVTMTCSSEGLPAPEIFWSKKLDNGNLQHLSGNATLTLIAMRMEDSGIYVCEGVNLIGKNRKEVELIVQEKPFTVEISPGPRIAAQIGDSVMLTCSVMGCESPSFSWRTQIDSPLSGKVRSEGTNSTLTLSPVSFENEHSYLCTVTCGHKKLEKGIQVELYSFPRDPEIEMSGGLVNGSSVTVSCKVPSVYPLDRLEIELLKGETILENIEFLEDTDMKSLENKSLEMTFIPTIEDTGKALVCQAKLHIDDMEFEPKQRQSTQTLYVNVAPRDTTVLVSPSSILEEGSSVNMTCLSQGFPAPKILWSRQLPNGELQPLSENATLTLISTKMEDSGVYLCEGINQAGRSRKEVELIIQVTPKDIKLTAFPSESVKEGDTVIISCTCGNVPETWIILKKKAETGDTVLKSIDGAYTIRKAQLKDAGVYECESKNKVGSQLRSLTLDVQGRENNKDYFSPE

[5] = target: T2, hICAM-1-Fc; remark: listed apart in the source
[6] = target: T5, hOX40-Fc
T5 construct: member of the panel m9
T5 chain: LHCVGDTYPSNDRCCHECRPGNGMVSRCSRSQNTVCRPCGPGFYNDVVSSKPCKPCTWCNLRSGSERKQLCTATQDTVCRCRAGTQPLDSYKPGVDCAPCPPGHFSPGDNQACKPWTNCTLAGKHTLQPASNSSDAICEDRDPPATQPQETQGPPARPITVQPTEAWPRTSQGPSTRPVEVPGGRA

[7] = target: T6, hVCAM-Fc
T6 construct: member of the panel m9
T6 chain: T4 sequence (looked up)

[8] = target: T7, hCMET-Fc (The natural ectodomain is cleaved by furin after residue 307 into disulfide-linked alpha and beta chains. It is given here as one continuous stretch.)
T7 construct: member of the panel m9
T7 chain: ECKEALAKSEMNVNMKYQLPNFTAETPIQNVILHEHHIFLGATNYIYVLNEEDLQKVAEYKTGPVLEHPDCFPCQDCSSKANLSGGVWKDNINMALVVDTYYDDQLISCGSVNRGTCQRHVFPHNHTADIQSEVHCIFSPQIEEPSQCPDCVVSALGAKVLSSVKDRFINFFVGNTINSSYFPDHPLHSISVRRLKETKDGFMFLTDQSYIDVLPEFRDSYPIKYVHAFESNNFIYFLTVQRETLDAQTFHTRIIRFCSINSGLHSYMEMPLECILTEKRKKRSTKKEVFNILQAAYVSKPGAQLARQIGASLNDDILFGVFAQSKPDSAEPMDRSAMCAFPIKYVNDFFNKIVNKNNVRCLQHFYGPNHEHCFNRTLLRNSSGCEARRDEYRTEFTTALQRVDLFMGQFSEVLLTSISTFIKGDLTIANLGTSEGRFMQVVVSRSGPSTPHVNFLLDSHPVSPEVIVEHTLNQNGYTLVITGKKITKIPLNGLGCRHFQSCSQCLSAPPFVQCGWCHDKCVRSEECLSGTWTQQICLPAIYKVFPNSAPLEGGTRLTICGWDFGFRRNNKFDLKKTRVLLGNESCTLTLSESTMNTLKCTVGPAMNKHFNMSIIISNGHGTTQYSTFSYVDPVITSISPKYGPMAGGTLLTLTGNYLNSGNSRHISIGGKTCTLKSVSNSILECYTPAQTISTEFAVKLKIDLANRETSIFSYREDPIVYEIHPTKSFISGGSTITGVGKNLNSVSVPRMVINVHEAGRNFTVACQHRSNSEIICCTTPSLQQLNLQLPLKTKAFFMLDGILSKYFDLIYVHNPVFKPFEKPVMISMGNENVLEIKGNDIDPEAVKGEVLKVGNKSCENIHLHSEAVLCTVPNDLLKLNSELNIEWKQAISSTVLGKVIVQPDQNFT

[9] = target: T8, hEpCAM-Fc (human, UniProt P16422)
T8 construct: Fc fusion; member of the panel m9
T8 sequence (looked up): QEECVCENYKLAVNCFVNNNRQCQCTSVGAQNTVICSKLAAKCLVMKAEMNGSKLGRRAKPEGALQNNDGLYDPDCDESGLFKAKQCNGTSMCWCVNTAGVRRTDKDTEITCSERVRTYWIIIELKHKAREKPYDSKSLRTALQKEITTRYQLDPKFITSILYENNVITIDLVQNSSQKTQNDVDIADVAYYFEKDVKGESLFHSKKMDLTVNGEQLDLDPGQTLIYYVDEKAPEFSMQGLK

Measured: binding result

B1: MH5, human IgG1 (antibody, V domains shown)
VH: QVQLVQSGAEVKKPGASVKVSCKASGYTFTDYYMNWVRQAPGQGLEWMGRIYPGSGNTYYAQKFQGRVTMTRDTSTSTVYMELSSLRSEDTAVYYCARGVYYYDYWGQGTLVTVSS
VL: DIQMTQSPSSLSASVGDRVTITCRASQGIRTNLAWFQQKPGKAPKSLIYSASSLQSGVPSRFSGSGSGTDFTLTISSLQPEDFATYYCQQYANYPRTFGGGTKVEIK
notes: IgG1; also called C-KIT-MH5; C-KIT-MHS
no binding (tested: 1 µg/ml): [1] | [2] | [3] | [4]

B2: humanized h37M, human IgG1 (antibody, V domains shown)
VH: QVQLVQSGAEVKKPGASVKLSCKASGYTFTDYYINWVRQAPGKGLEWIARIYPGSGNTYYNEKFKGRATLTADKSTSTAYMQLSSLRSEDTAVYFCARGVYYFDYWGQGTTVTVSS
VL: DIVMTQSPSSLSASVGDRVTITCKASQNVRTNVAWYQQKPGKAPKALIYSASYRYSGVPDRFTGSGSGTDFTLTISSLQPEDFADYFCQQYNSYPRTFGGGTKVEIK
notes: human IgG1; terbium-labelled as the tracer of the HTRF assays; also called C-KIT-h37M; h37M-IgG1
no binding (tested: 1 µg/ml): [5] | [6] | [7] | [8] | [9]

Reference: US20200283521A1 (GRANULAR THERAPEUTICS, published 2020)
